Results reported in patent US20100130423.

Experiments:
[1] = target: adaptor protein LnK, wild type (UniProt Q9UQQ2)
[2] = target: LnK PH domain (from V5-LnK mutant constructs) (UniProt Q9UQQ2)

## JAK2 V617F
[1]
  tyrosine phosphorylation of LnK (anti-phosphotyrosine immunoprecipitation, LnK Western blot): the phosphorylation levels of LnK itself are higher in 293T cells expressing JAK2 V617F compared with cells expressing JAK2 WT
[2]
  JAK2 V671F autophosphorylation levels: The LnK PH domain associates with and inhibits JAK2 V671F
